Measurements taken from the supplement of paper PMC10567573.

B1: ZNF75A (parent)
chain: RTHTGEQPYTCSICRRNFSRRSSL

Variants of: B1
Assay: protein stability index of a GFP-peptide fusion (GPS, HEK-293T) (PSI 1-6); higher = more stable
Details: c terminus: a fixed tail appended
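Also: lentivirally expressed fusions sorted by FACS into six bins by GFP to DsRed ratio, PSI derived from sequencing read proportions per bin multiplied by bin number.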

Compared with RTHTGEQPYTCDICRRNFSRRSSL [S12D], RTHTGEQPYTCEICRRNFSRRSSL [S12E] is lower in protein stability index: 3.1 for the first, 2.26 for the second.

Going from RTHTGEQPYTCFICRRNFSRRSSL [S12F] to RTHTGEQPYTCGICRRNFSRRSSL [S12G], the protein stability index falls from 2.83 to 2.38.

First: RTHTGEQPYTCHICRRNFSRRSSL [S12H]
Second: RTHTGEQPYTCIICRRNFSRRSSL [S12I]
The protein stability index of the first is higher: 3.13 for the first, 2.53 for the second.

First: RTHTGEQPYTCKICRRNFSRRSSL [S12K]
Second: RTHTGEQPYTCLICRRNFSRRSSL [S12L]
The protein stability index of the first is higher: 2.63 for the first, 2.04 for the second.

Compared with RTHTGEQPYTCMICRRNFSRRSSL [S12M], RTHTGEQPYTCNICRRNFSRRSSL [S12N] is higher in protein stability index: 2.41 for the first, 2.52 for the second.

First: RTHTGEQPYTCPICRRNFSRRSSL [S12P]
Second: RTHTGEQPYTCQICRRNFSRRSSL [S12Q]
The protein stability index of the first is higher: 3.14 for the first, 2.61 for the second.

Compared with RTHTGEQPYTCRICRRNFSRRSSL [S12R], RTHTGEQPYTCTICRRNFSRRSSL [S12T] is lower in protein stability index: 3.07 for the first, 2.82 for the second.

Going from RTHTGEQPYTCVICRRNFSRRSSL [S12V] to RTHTGEQPYTCWICRRNFSRRSSL [S12W], the protein stability index falls from 2.98 to 2.21.

Going from RTHTGEQPYTCYICRRNFSRRSSL [S12Y] to RTHTGEQPYTCSACRRNFSRRSSL [I13A], the protein stability index falls from 2.81 to 2.54.

Compared with RTHTGEQPYTCSCCRRNFSRRSSL [I13C], RTHTGEQPYTCSDCRRNFSRRSSL [I13D] is lower in protein stability index: 2.71 for the first, 2.65 for the second.

Compared with RTHTGEQPYTCSECRRNFSRRSSL [I13E], RTHTGEQPYTCSFCRRNFSRRSSL [I13F] is lower in protein stability index: 2.71 for the first, 2.65 for the second.

First: RTHTGEQPYTCSGCRRNFSRRSSL [I13G]
Second: RTHTGEQPYTCSHCRRNFSRRSSL [I13H]
The protein stability index of the first is lower: 2.42 for the first, 2.81 for the second.

Going from RTHTGEQPYTCSKCRRNFSRRSSL [I13K] to RTHTGEQPYTCSLCRRNFSRRSSL [I13L], the protein stability index falls from 3.5 to 2.25.

Compared with RTHTGEQPYTCSMCRRNFSRRSSL [I13M], RTHTGEQPYTCSNCRRNFSRRSSL [I13N] is higher in protein stability index: 2.21 for the first, 3.72 for the second.

Going from RTHTGEQPYTCSPCRRNFSRRSSL [I13P] to RTHTGEQPYTCSQCRRNFSRRSSL [I13Q], the protein stability index falls from 3.44 to 2.74.

Compared with RTHTGEQPYTCSRCRRNFSRRSSL [I13R], RTHTGEQPYTCSSCRRNFSRRSSL [I13S] is lower in protein stability index: 2.96 for the first, 2.71 for the second.

First: RTHTGEQPYTCSTCRRNFSRRSSL [I13T]
Second: RTHTGEQPYTCSVCRRNFSRRSSL [I13V]
The protein stability index of the first is lower: 2.7 for the first, 3.18 for the second.

Going from RTHTGEQPYTCSWCRRNFSRRSSL [I13W] to RTHTGEQPYTCSYCRRNFSRRSSL [I13Y], the protein stability index falls from 2.51 to 1.96.

Going from RTHTGEQPYTCSIARRNFSRRSSL [C14A] to RTHTGEQPYTCSIDRRNFSRRSSL [C14D], the protein stability index rises from 3.67 to 3.7.

Going from RTHTGEQPYTCSIERRNFSRRSSL [C14E] to RTHTGEQPYTCSIFRRNFSRRSSL [C14F], the protein stability index falls from 4.42 to 3.59.

First: RTHTGEQPYTCSIGRRNFSRRSSL [C14G]
Second: RTHTGEQPYTCSIHRRNFSRRSSL [C14H]
The protein stability index of the first is higher: 4.72 for the first, 3.87 for the second.

Compared with RTHTGEQPYTCSIIRRNFSRRSSL [C14I], RTHTGEQPYTCSIKRRNFSRRSSL [C14K] is higher in protein stability index: 4.01 for the first, 4.03 for the second.

First: RTHTGEQPYTCSILRRNFSRRSSL [C14L]
Second: RTHTGEQPYTCSIMRRNFSRRSSL [C14M]
The protein stability index of the first is lower: 3.5 for the first, 3.92 for the second.

Compared with RTHTGEQPYTCSINRRNFSRRSSL [C14N], RTHTGEQPYTCSIPRRNFSRRSSL [C14P] is lower in protein stability index: 4.11 for the first, 3.6 for the second.

Compared with RTHTGEQPYTCSIQRRNFSRRSSL [C14Q], RTHTGEQPYTCSIRRRNFSRRSSL [C14R] is higher in protein stability index: 3.72 for the first, 4.49 for the second.

Going from RTHTGEQPYTCSISRRNFSRRSSL [C14S] to RTHTGEQPYTCSITRRNFSRRSSL [C14T], the protein stability index rises from 4.04 to 4.21.

Compared with RTHTGEQPYTCSIVRRNFSRRSSL [C14V], RTHTGEQPYTCSIWRRNFSRRSSL [C14W] is lower in protein stability index: 4.03 for the first, 2.68 for the second.

Going from RTHTGEQPYTCSIYRRNFSRRSSL [C14Y] to RTHTGEQPYTCSICARNFSRRSSL [R15A], the protein stability index falls from 3.66 to 2.13.

First: RTHTGEQPYTCSICCRNFSRRSSL [R15C]
Second: RTHTGEQPYTCSICDRNFSRRSSL [R15D]
The protein stability index of the first is lower: 2 for the first, 2.02 for the second.

Going from RTHTGEQPYTCSICERNFSRRSSL [R15E] to RTHTGEQPYTCSICFRNFSRRSSL [R15F], the protein stability index falls from 2.03 to 1.85.

Going from RTHTGEQPYTCSICGRNFSRRSSL [R15G] to RTHTGEQPYTCSICHRNFSRRSSL [R15H], the protein stability index falls from 2.93 to 2.49.

Going from RTHTGEQPYTCSICIRNFSRRSSL [R15I] to RTHTGEQPYTCSICKRNFSRRSSL [R15K], the protein stability index rises from 2.32 to 2.86.

First: RTHTGEQPYTCSICLRNFSRRSSL [R15L]
Second: RTHTGEQPYTCSICMRNFSRRSSL [R15M]
The protein stability index of the first is lower: 1.54 for the first, 1.6 for the second.

Going from RTHTGEQPYTCSICNRNFSRRSSL [R15N] to RTHTGEQPYTCSICPRNFSRRSSL [R15P], the protein stability index rises from 2.84 to 3.19.

Compared with RTHTGEQPYTCSICQRNFSRRSSL [R15Q], RTHTGEQPYTCSICSRNFSRRSSL [R15S] is higher in protein stability index: 2.25 for the first, 2.47 for the second.

First: RTHTGEQPYTCSICTRNFSRRSSL [R15T]
Second: RTHTGEQPYTCSICVRNFSRRSSL [R15V]
The protein stability index of the first is higher: 2.34 for the first, 1.7 for the second.

First: RTHTGEQPYTCSICWRNFSRRSSL [R15W]
Second: RTHTGEQPYTCSICYRNFSRRSSL [R15Y]
The protein stability index of the first is higher: 2.02 for the first, 1.89 for the second.

Going from RTHTGEQPYTCSICRANFSRRSSL [R16A] to RTHTGEQPYTCSICRCNFSRRSSL [R16C], the protein stability index falls from 1.99 to 1.34.

Going from RTHTGEQPYTCSICRDNFSRRSSL [R16D] to RTHTGEQPYTCSICRENFSRRSSL [R16E], the protein stability index rises from 1.78 to 2.53.

First: RTHTGEQPYTCSICRFNFSRRSSL [R16F]
Second: RTHTGEQPYTCSICRGNFSRRSSL [R16G]
The protein stability index of the first is lower: 1.81 for the first, 2.05 for the second.

Going from RTHTGEQPYTCSICRHNFSRRSSL [R16H] to RTHTGEQPYTCSICRINFSRRSSL [R16I], the protein stability index rises from 1.59 to 1.88.

Compared with RTHTGEQPYTCSICRKNFSRRSSL [R16K], RTHTGEQPYTCSICRLNFSRRSSL [R16L] is lower in protein stability index: 2.92 for the first, 1.27 for the second.

Compared with RTHTGEQPYTCSICRMNFSRRSSL [R16M], RTHTGEQPYTCSICRNNFSRRSSL [R16N] is lower in protein stability index: 2.43 for the first, 1.99 for the second.

Going from RTHTGEQPYTCSICRPNFSRRSSL [R16P] to RTHTGEQPYTCSICRQNFSRRSSL [R16Q], the protein stability index rises from 2.3 to 2.99.

Compared with RTHTGEQPYTCSICRSNFSRRSSL [R16S], RTHTGEQPYTCSICRTNFSRRSSL [R16T] is higher in protein stability index: 1.86 for the first, 2.34 for the second.

Going from RTHTGEQPYTCSICRVNFSRRSSL [R16V] to RTHTGEQPYTCSICRWNFSRRSSL [R16W], the protein stability index falls from 1.79 to 1.37.

First: RTHTGEQPYTCSICRYNFSRRSSL [R16Y]
Second: RTHTGEQPYTCSICRRAFSRRSSL [N17A]
The protein stability index of the first is lower: 1.59 for the first, 3.22 for the second.
